Several values for one entry are separate records, joined by “and”; a condition that tells them apart may be missing. Equal values may be shown once.

As usually defined, the stoichiometry N is the number of molecules, sites or subunits per partner or assembly.

Test [1] has as its target Surfactant associated protein-A (human (endogenous in BAL fluid and serum)) (UniProt Q8IWL2). Description: SEC; Superose 6 column, 500 µl of serum loaded, fractions of 800 µl, SP-A in the fractions by slot blot; column calibrated with blue dextran (2000 kDa), holotransferrin (669 kDa) and bovine serum albumin (66 kDa); a peak counts as present at 20 % or more of total SP-A. On the technique in general: In gel filtration, larger molecules generally elute earlier.

Test [2] shares this target. Description: SEC; Superose 6 column, 1 ml of BAL fluid loaded, fractions of 800 µl, SP-A in the fractions by slot blot; column calibrated with blue dextran (2000 kDa), holotransferrin (669 kDa) and bovine serum albumin (66 kDa); a peak counts as present at 20 % or more of total SP-A.
Test [3] has the same target.
The target is the same in test [4]. Description: SEC; Superose 6 column, 500 µl of serum loaded, fractions of 800 µl, SP-A in the fractions by slot blot; column calibrated with blue dextran (2000 kDa), holotransferrin (669 kDa) and bovine serum albumin (66 kDa); a peak counts as present at 20 % or more of total SP-A. This is another data set of the same source.

Regarding “Surfactant associated protein-A (from UniProt Q8IWL2 21-248) (natural protein)”, the stoichiometry N in test [1] is 2 and 3. Further, the stoichiometry N in test [2] stood at 18. Further, in test [3], the size of agglutinates of anti-SP-A latex beads; BAL, 6mers, chronic bronchitis (n = 10) amounted to 316 Pixel; the size of agglutinates of anti-SP-A latex beads; BAL, 6mers, controls (n = 10) was 352 Pixel; the size of agglutinates of anti-SP-A latex beads; BAL, 6mers, cystic fibrosis (n = 10) came to 234 Pixel; the size of agglutinates of anti-SP-A latex beads; BAL, 18mers, chronic bronchitis (n = 10) came to 370 Pixel. Moreover, in test [3], the size of agglutinates of anti-SP-A latex beads; BAL, 18mers, controls (n = 10) amounted to 517 Pixel; the size of agglutinates of anti-SP-A latex beads; BAL, 18mers, cystic fibrosis (n = 10) turned out to be 316 Pixel; the size of agglutinates of anti-SP-A latex beads; BAL, trimers, chronic bronchitis (n = 10) is 114 Pixel; the size of agglutinates of anti-SP-A latex beads; BAL, trimers, controls (n = 10) is 118 Pixel. In test [3], this substance had a size of agglutinates of anti-SP-A latex beads; BAL, trimers, cystic fibrosis (n = 10) of 74 Pixel; a size of agglutinates of anti-SP-A latex beads; serum, 6mers, chronic bronchitis (n = 10) of 377 Pixel; a size of agglutinates of anti-SP-A latex beads; serum, 6mers, controls (n = 10) of 361 Pixel; a size of agglutinates of anti-SP-A latex beads; serum, 6mers, cystic fibrosis (n = 10) of 380 Pixel. Moreover, in test [3], the size of agglutinates of anti-SP-A latex beads; serum, 18mers, chronic bronchitis (n = 10) was 469 Pixel; the size of agglutinates of anti-SP-A latex beads; serum, 18mers, controls (n = 10) was 525 Pixel; the size of agglutinates of anti-SP-A latex beads; serum, 18mers, cystic fibrosis (n = 10) was 481 Pixel; the size of agglutinates of anti-SP-A latex beads; serum, trimers, chronic bronchitis (n = 10) was 143 Pixel. For the same substance, in test [3], the size of agglutinates of anti-SP-A latex beads; serum, trimers, controls (n = 10) is 132 Pixel and the size of agglutinates of anti-SP-A latex beads; serum, trimers, cystic fibrosis (n = 10) was 146 Pixel. In test [4], this substance gave a stoichiometry N of 18.

Source of the values: paper PMC3517609.
